# Source: patent publication US20030162277
# T1: Ca-/calmodulin-dependent PK substrate peptide KKALRRQETVDAL
# T1 chain: KKALRRQETVDAL
# T2: Ca-/calmodulin-dependent PK substrate peptide PLARTLSVAGLPGK
# T2 chain: PLARTLSVAGLPGK
# T3: S6 kinase substrate peptide LSSLRASTSKSGGQK
# T3 chain: LSSLRASTSKSGGQK
# T4: abl tyrosine kinase substrate peptide EAIYAAPFAKKK
# T4 chain: EAIYAAPFAKKK
# T5: c-src tyrosine kinase substrate peptide YIYGSFK
# T5 chain: YIYGSFK
# T6: cAMP-dependent protein kinase substrate peptide LRRASLG
# T6 chain: LRRASLG
# T7: cGMP-dependent protein kinase substrate peptide RKISASEFDRPLR
# T7 chain: RKISASEFDRPLR
# T8: casein kinase I substrate peptide RRKDLHDDEEDEAMSITA
# T8 chain: RRKDLHDDEEDEAMSITA
# T9: casein kinase II substrate peptide RRRDDDSDDD
# T9 chain: RRRDDDSDDD
# T10: cdc2-kinase substrate peptide Ac-SPGRRRRK
# T10 chain: SPGRRRRK
# T11: csk tyrosine kinase substrate peptide KKKKEEIYFFF
# T11 chain: KKKKEEIYFFF
# T12: insulin receptor tyrosine kinase substrate peptide KKKLPATGDYMNMSPVGD
# T12 chain: KKKLPATGDYMNMSPVGD
# T13: myosin light chain kinase substrate peptide KKRPQRATSNVFS
# T13 chain: KKRPQRATSNVFS
# T14: p34 cdc-kinase substrate peptide PKTPKKAKKL
# T14 chain: PKTPKKAKKL
# T15: p42/p44 MAP kinase substrate peptide APRTPGGRR
# T15 chain: APRTPGGRR
# T16: p42/p44 MAP kinase substrate peptide EAAEAEPAEPSSPAAEAEGA
# T16 chain: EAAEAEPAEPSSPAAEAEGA
# T17: p42/p44 MAP kinase substrate peptide LMECRNSPVAKT
# T17 chain: LMECRNSPVAKT
# T18: protein kinase C substrate peptide KKRFSFKKSFKLSGFSFK
# T18 chain: KKRFSFKKSFKLSGFSFK
# T19: protein kinase C substrate peptide QKRPSQRSK
# T19 chain: QKRPSQRSK
# T20: raf-1 kinase substrate peptide SGQLIDSMANSFVGTRS
# T20 chain: SGQLIDSMANSFVGTRS
# Assays:
# [1] = target: T1, Ca-/calmodulin-dependent PK substrate …
# [2] = target: T2, Ca-/calmodulin-dependent PK substrate …
# [3] = target: T3, S6 kinase substrate peptide …
# [4] = target: T4, abl tyrosine kinase substrate peptide …
# [5] = target: T5, c-src tyrosine kinase substrate peptide …
# [6] = target: T6, cAMP-dependent protein kinase substrate …
# [7] = target: T7, cGMP-dependent protein kinase substrate …
# [8] = target: T8, casein kinase I substrate peptide …
# [9] = target: T9, casein kinase II substrate peptide …
# [10] = target: T10, cdc2-kinase substrate peptide …
# [11] = target: T11, csk tyrosine kinase substrate peptide …
# [12] = target: T12, insulin receptor tyrosine kinase …
# [13] = target: T13, myosin light chain kinase substrate …
# [14] = target: T14, p34 cdc-kinase substrate peptide …
# [15] = target: T15, p42/p44 MAP kinase substrate peptide …
# [16] = target: T16, p42/p44 MAP kinase substrate peptide …
# [17] = target: T17, p42/p44 MAP kinase substrate peptide …
# [18] = target: T18, protein kinase C substrate peptide …
# [19] = target: T19, protein kinase C substrate peptide …
# [20] = target: T20, raf-1 kinase substrate peptide …
protein,measurement,setting,value
Murine Lymph node Stromal cell Kinase 1 (MLSK-1) (protein) MESVALLQRPSQAPSASALASESARPLADGLIKSPKPLMKKQAVKRHHHKHNLRHRYEFLETLGKGTYGKVKKARESSGRLVAIKSIRKDKIKDEQDLLHIRREIEIMSSLNHPHIIAIHEVFENSSKIVIVMEYASRGDLYDYISERPRLSERDARHFFRQIVSALHYCHQNGIVHRDLKLENILLDANGNIKIADFGLSNLYHKGKFLQTFCGSPLYASPEIVNGKPYVGPEVDSWSLGVLLYILVHGTMPFDGQDHKTLVKQISNGAYREPPKPSDACGLIRWLLMVNPTRRATLEDVASHWWVNWGYTTGVGEQEALREGGHPSGDFGRASMADWLRRSSRPLLENGAKVCSFFKQHVPGGGSTVPGLERQHSLKKSRKENDMAQNLQGDPAEDTSSRPGKSSLKLPKGILKKKSSTSSGEVQEDPQELRPVPDTPGQPVPAVSLLPRKGILKKSRQRESGYYSSPEPSESGELLDASDVFVSGDPVEQKSPQASGLLLHRKGILKLNGKFSRTALEGTTPSTFGSLDQLASSHPAARPSRPSGAVSEDSILSSESFDQLDLPERLPETPLRGCVSVDNLRGLEQPPSEGLKRWWQESLGDSCFSLTDCQEVTAAYRQALGICSKLS,Phosphorylation by MLSK-1 (% of max.),[1],20.9 % of max.
same,Phosphorylation by MLSK-1 (% of max.),[2],10.3 % of max.
same,Phosphorylation by MLSK-1 (% of max.),[3],66.6 % of max.
same,Phosphorylation by MLSK-1 (% of max.),[4],69.3 % of max.
same,Phosphorylation by MLSK-1 (% of max.),[5],66.6 % of max.
same,Phosphorylation by MLSK-1 (% of max.),[6],65.9 % of max.
same,Phosphorylation by MLSK-1 (% of max.),[7],62.2 % of max.
same,Phosphorylation by MLSK-1 (% of max.),[8],14.1 % of max.
same,Phosphorylation by MLSK-1 (% of max.),[9],17.6 % of max.
same,Phosphorylation by MLSK-1 (% of max.),[10],94.8 % of max.
same,Phosphorylation by MLSK-1 (% of max.),[11],82.1 % of max.
same,Phosphorylation by MLSK-1 (% of max.),[12],33.7 % of max.
same,Phosphorylation by MLSK-1 (% of max.),[13],72 % of max.
same,Phosphorylation by MLSK-1 (% of max.),[14],82 % of max.
same,Phosphorylation by MLSK-1 (% of max.),[15],88.6 % of max.
same,Phosphorylation by MLSK-1 (% of max.),[16],0 % of max.
same,Phosphorylation by MLSK-1 (% of max.),[17],3.8 % of max.
same,Phosphorylation by MLSK-1 (% of max.),[18],100 % of max.
same,Phosphorylation by MLSK-1 (% of max.),[19],75 % of max.
same,Phosphorylation by MLSK-1 (% of max.),[20],43.1 % of max.
